Reference: US20250074994A1 (Molecular Partners, published 2025)

Target: T1, biotinylated recombinant human CD70 (extracellular domain, Fc tag) (human, UniProt P32970 52-193, chemically biotinylated using 5-fold excess of Biotin)
T1 construct: Bought from ACROBiosystems; also called bio.hCD70; Bio.CD70; not shown: C-terminal Fc Tag of the bought protein (ACROBiosystems)
T1 sequence: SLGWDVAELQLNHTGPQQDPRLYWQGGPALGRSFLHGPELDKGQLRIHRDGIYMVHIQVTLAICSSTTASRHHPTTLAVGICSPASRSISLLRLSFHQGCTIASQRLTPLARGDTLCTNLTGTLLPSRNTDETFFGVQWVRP
Assay: crude cell extract HTRF with 2 nM biotinylated hCD70
From the text: Selected clones bind specially to human CD70 as shown by crude extract HTRF Individual selected ankyrin repeat proteins specifically binding to hCD70 in solution were identified by a Homogeneous Time Resolved Fluorescence (HTRF) assay using crude extracts of ankyrin repeat protein-expressing Escherichia coli cells using standard protocols. Ankyrin repeat protein clones selected by ribosome display were cloned into derivatives of the pQE30 (Qiagen) expression vector (pMPDV25), transformed into E. coli XL1-Blue (Stratagene), plated on LB-agar (containing 1% glucose and 50 μg/ml ampicillin) and then incubated overnight at 37° C. […]
The extract of each lysed clone was applied as a 1:2000 dilution (final concentration) in PBSTB (PBS supplemented with 0.1% Tween 20® and 0.2% (w/v) BSA, pH 7.4) together with 2 nM (final concentration) biotinylated hCD70, 1:400 (final concentration) of anti-strep-Tb HTRF antibody—FRET donor conjugate (Cisbio) and 1:400 (final concentration) of anti-6His-D2 antibody FRET acceptor conjugate (Cisbio) to a well of 384 well plate and incubated for 60 minutes at RT. The HTRF was read-out on a Tecan M1000 using a 340 nm excitation wavelength and a 665±10 nm emission filter.

binding result: binds
B1: DARPin® protein #4 (designed binder)
chain: MRGSHHHHHHGSDLGFKLLQAALRGQDDEVRILLAAGADVNAKDQLGTTPLHLAAHYGHLEIVEVLLKAGADVNAKDVWGDTPLHLAAQHGHLEIVEVLLKAGADVNAQDRAGYTPADLAAQEGHEDIAEVLQKAA
